Laboratory results from publication PMC1713233 (2006).

Biological target: T1, Trypsin Soybean Inhibitor (TSI) (Glycine max, UniProt P01070)
T1 chain: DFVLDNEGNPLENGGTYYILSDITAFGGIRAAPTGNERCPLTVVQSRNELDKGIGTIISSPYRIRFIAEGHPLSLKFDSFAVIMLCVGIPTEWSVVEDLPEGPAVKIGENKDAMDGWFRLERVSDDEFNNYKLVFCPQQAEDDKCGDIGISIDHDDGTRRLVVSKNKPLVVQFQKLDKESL
Assay: enzyme inhibition assay (BAPNA substrate, Cheng-Prusoff)

B1: Implantation serine proteinase complex (ISP1-ISP2) (protein)
chain 1: KPVGIVGGQRTPPGKWPWQVSLRMYSYEVNSWVHICGGSIIHPQWILTAAHCIQSQDADPAVYRVQVGEVYLYKEQELLNISRIIIHPDYNDVSKRFDLALMQLTALLVTSTNVSPVSLPKDSSTFDSTDQCWLVGWGNLLQRVPLQPPYQLHEVKIPIQDNKSCKRAYRKKSSDEHKAVAIFDDMLCAGTSGRGPCFGDSGGPLVCWKSNKWIQVGVVSKGIDCSNNLPSIFSRVQSSLAWIHQHIQ
chain 2: not shown
With B1 the Ki was 2180 nM.
